Molecular target: HLA-A2 on HLA-A2 positive lymphocytes / PBMCs (human)
Assay: cell-based or functional assay

For “conjugate C (streptavidin-linked BB7.2 monoclonal antibody mixed with biotinylated HLA-G) (from UniProt P22629 37-163; P17693 25-299)”, the G-Body inhibitory effect on proliferation of PBMCs; CD3/CD28 beads; HLA-A2 positive donor C; Day 7 was 70%, the G-Body inhibitory effect on proliferation of PBMCs; CD3/CD28 beads; HLA-A2 positive donor D; Day 7 was 50% and the G-Body inhibitory effect on proliferation of PBMCs; CD3/CD28 beads; HLA-A2 positive donor G; Day 3 was 40%. It also gave a G-Body inhibitory effect on proliferation of PBMCs; CD3/CD28 beads; HLA-A2 positive donor G; Day 7 of 50%, a G-Body inhibitory effect on proliferation of PBMCs; CD3/CD28 beads; HLA-A2 positive donor J; Day 3 of 50% and a G-Body inhibitory effect on proliferation of PBMCs; SEB; HLA-A2 positive donor C; Day 3 of 60%. For the same substance, the G-Body inhibitory effect on proliferation of PBMCs; SEB; HLA-A2 positive donor J; Day 3 was 70% and the G-Body inhibitory effect on proliferation of PBMCs; SEB; HLA-A2 positive donor J; Day 7 was 70%.
